B1: SYIM_HUMAN (protein, UniProt Q9NSE4 49-1012, looked up)
Isoleucine--tRNA ligase, …: SNHQPNSNSGRYRDTVLLPQTSFPMKLLGRQQPDTELEIQQKCGFSELYSWQRERKVKTEFCLHDGPPYANGDPHVGHALNKILKDIANRFHMMNGSKIHFVPGWDCHGLPIEIKVLSELGREAQNLSAMEIRKKARSFAKAAIEKQKSAFIRWGIMADWNNCYYTFDGKYEAKQLRTFYQMYDKGLVYRSYKPVFWSPSSRTALAEAELEYNPEHVSRSIYVKFPLLKPSPKLASLIDGSSPVSILVWTTQPWTIPANEAVCYMPESKYAVVKCSKSGDLYVLAADKVASVASTLETTFETISTLSGVDLENGTCSHPLIPDKASPLLPANHVTMAKGTGLVHTAPAHGMEDYGVASQHNLPMDCLVDEDGVFTDVAGPELQNKAVLEEGTDVVIKMLQTAKNLLKEEKLVHSYPYDWRTKKPVVIRASKQWFINITDIKTAAKELLKKVKFIPGSALNGMVEMMDRRPYWCISRQRVWGVPIPVFHHKTKDEYLINSQTTEHIVKLVEQHGSDIWWTLPPEQLLPKEVLSEVGGPDALEYVPGQDILDIWFDSGTSWSYVLPGPDQRADLYLEGKDQLGGWFQSSLLTSVAARKRAPYKTVIVHGFTLGEKGEKMSKSLGNVIHPDVVVNGGQDQSKEPPYGADVLRWWVADSNVFTEVAIGPSVLNAARDDISKLRNTLRFLLGNVADFNPETDSIPVNDMYVIDQYMLHLLQDLANKITELYKQYDFGKVVRLLRTFYTRELSNFYFSIIKDRLYCEKENDPKRRSCQTALVEILDVIVRSFAPILPHLAEEVFQHIPYIKEPKSVFRTGWISTSSIWKKPGLEEAVESACAMRDSFLGSIPGKNAAEYKVITVIEPGLLFEIIEMLQSEETSSTSQLNELMMASESTLLAQEPREMTADVIELKGKFLINLEGGDIREESSYKVIVMPTTKEKCPRCWKYTAESSDTLCPRCAEVVSGK
B2: RB12B_HUMAN (protein, UniProt Q8IXT5 1-1001, looked up)
RNA-binding protein 12B: MAVVIRLLGLPFIAGPVDIRHFFTGLTIPDGGVHIIGGEIGEAFIIFATDEDARRAISRSGGFIKDSSVELFLSSKAEMQKTIEMKRTDRVGRGRPGSGTSGVDSLSNFIESVKEEASNSGYGSSINQDAGFHTNGTGHGNLRPRKTRPLKAENPYLFLRGLPYLVNEDDVRVFFSGLCVDGVIFLKHHDGRNNGDAIVKFASCVDASGGLKCHRSFMGSRFIEVMQGSEQQWIEFGGNAVKEGDVLRRSEEHSPPRGINDRHFRKRSHSKSPRRTRSRSPLGFYVHLKNLSLSIDERDLRNFFRGTDLTDEQIRFLYKDENRTRYAFVMFKTLKDYNTALSLHKTVLQYRPVHIDPISRKQMLKFIARYEKKRSGSLERDRPGHVSQKYSQEGNSGQKLCIYIRNFPFDVTKVEVQKFFADFLLAEDDIYLLYDDKGVGLGEALVKFKSEEQAMKAERLNRRRFLGTEVLLRLISEAQIQEFGVNFSVMSSEKMQARSQSRERGDHSHLFDSKDPPIYSVGAFENFRHQLEDLRQLDNFKHPQRDFRQPDRHPPEDFRHSSEDFRFPPEDFRHSPEDFRRPREEDFRRPSEEDFRRPWEEDFRRPPEDDFRHPREEDWRRPLEEDWRRPLEEDFRRSPTEDFRQLPEEDFRQPPEEDLRWLPEEDFRRPPEEDWRRPPEEDFRRPLQGEWRRPPEDDFRRPPEEDFRHSPEEDFRQSPQEHFRRPPQEHFRRPPPEHFRRPPPEHFRRPPPEHFRRPPPEHFRRPPPEHFRRPPPEHFRRPPQEHFRRPPQEHFRRSREEDFRHPPDEDFRGPPDEDFRHPPDEDFRSPQEEDFRCPSDEDFRQLPEEDLREAPEEDPRLPDNFRPPGEDFRSPPDDFRSHRPFVNFGRPEGGKFDFGKHNMGSFPEGRFMPDPKINCGSGRVTPIKIMNLPFKANVNEILDFFHGYRIIPDSVSIQYNEQGLPTGEAIVAMINYNEAMAAIKDLNDRPVGPRKVKLTLL
B3: SMC1A_HUMAN (protein, UniProt Q14683 1-1233, looked up)
Structural maintenance of …: MGFLKLIEIENFKSYKGRQIIGPFQRFTAIIGPNGSGKSNLMDAISFVLGEKTSNLRVKTLRDLIHGAPVGKPAANRAFVSMVYSEEGAEDRTFARVIVGGSSEYKINNKVVQLHEYSEELEKLGILIKARNFLVFQGAVESIAMKNPKERTALFEEISRSGELAQEYDKRKKEMVKAEEDTQFNYHRKKNIAAERKEAKQEKEEADRYQRLKDEVVRAQVQLQLFKLYHNEVEIEKLNKELASKNKEIEKDKKRMDKVEDELKEKKKELGKMMREQQQIEKEIKEKDSELNQKRPQYIKAKENTSHKIKKLEAAKKSLQNAQKHYKKRKGDMDELEKEMLSVEKARQEFEERMEEESQSQGRDLTLEENQVKKYHRLKEEASKRAATLAQELEKFNRDQKADQDRLDLEERKKVETEAKIKQKLREIEENQKRIEKLEEYITTSKQSLEEQKKLEGELTEEVEMAKRRIDEINKELNQVMEQLGDARIDRQESSRQQRKAEIMESIKRLYPGSVYGRLIDLCQPTQKKYQIAVTKVLGKNMDAIIVDSEKTGRDCIQYIKEQRGEPETFLPLDYLEVKPTDEKLRELKGAKLVIDVIRYEPPHIKKALQYACGNALVCDNVEDARRIAFGGHQRHKTVALDGTLFQKSGVISGGASDLKAKARRWDEKAVDKLKEKKERLTEELKEQMKAKRKEAELRQVQSQAHGLQMRLKYSQSDLEQTKTRHLALNLQEKSKLESELANFGPRINDIKRIIQSREREMKDLKEKMNQVEDEVFEEFCREIGVRNIREFEEEKVKRQNEIAKKRLEFENQKTRLGIQLDFEKNQLKEDQDKVHMWEQTVKKDENEIEKLKKEEQRHMKIIDETMAQLQDLKNQHLAKKSEVNDKNHEMEEIRKKLGGANKEMTHLQKEVTAIETKLEQKRSDRHNLLQACKMQDIKLPLSKGTMDDISQEEGSSQGEDSVSGSQRISSIYAREALIEIDYGDLCEDLKDAQAEEEIKQEMNTLQQKLNEQQSVLQRIAAPNMKAMEKLESVRDKFQETSDEFEAARKRAKKAKQAFEQIKKERFDRFNACFESVATNIDEIYKALSRNSSAQAFLGPENPEEPYLDGINYNCVAPGKRFRPMDNLSGGEKTVAALALLFAIHSYKPAPFFVLDEIDAALDNTNIGKVANYIKEQSTCNFQAIVISLKEEFYTKAESLIGVYPEQGDCVISKVLTFDLTKYPDANPNPNEQ
B4: NOMO1_HUMAN (protein, UniProt Q15155 32-1222, looked up)
BOS complex subunit NOMO1: SEDIVVGCGGFVKSDVEINYSLIEIKLYTKHGTLKYQTDCAPNNGYFMIPLYDKGDFILKIEPPLGWSFEPTTVELHVDGVSDICTKGGDINFVFTGFSVNGKVLSKGQPLGPAGVQVSLRNTGTEAKIQSTVTQPGGKFAFFKVLPGDYEILATHPTWALKEASTTVRVTNSNANAASPLIVAGYNVSGSVRSDGEPMKGVKFLLFSSLVTKEDVLGCNVSPVPGFQPQDESLVYLCYTVSREDGSFSFYSLPSGGYTVIPFYRGERITFDVAPSRLDFTVEHDSLKIEPVFHVMGFSVTGRVLNGPEGDGVPEAVVTLNNQIKVKTKADGSFRLENITTGTYTIHAQKEHLYFETVTIKIAPNTPQLADIIATGFSVCGQISIIRFPDTVKQMNKYKVVLSSQDKDKSLVTVETDAHGSFCFKAKPGTYKVQVMVPEAETRAGLTLKPQTFPLTVTNRPMMDVAFVQFLASVSGKVSCLDTCGDLLVTLQSLSRQGEKRSLQLSGKVNAMTFTFDNVLPGKYKISIMHEDWCWKNKSLEVEVLEDDMSAVEFRQTGYMLRCSLSHAITLEFYQDGNGRENVGIYNLSKGVNRFCLSKPGVYKVTPRSCHRFEQAFYTYDTSSPSILTLTAIRHHVLGTITTDKMMDVTVTIKSSIDSEPALVLGPLKSVQELRREQQLAEIEARRQEREKNGNEEGEERMTKPPVQEMVDELQGPFSYDFSYWARSGEKITVTPSSKELLFYPPSMEAVVSGESCPGKLIEIHGKAGLFLEGQIHPELEGVEIVISEKGASSPLITVFTDDKGAYSVGPLHSDLEYTVTSQKEGYVLTAVEGTIGDFKAYALAGVSFEIKAEDDQPLPGVLLSLSGGLFRSNLLTQDNGILTFSNLSPGQYYFKPMMKEFRFEPSSQMIEVQEGQNLKITITGYRTAYSCYGTVSSLNGEPEQGVAMEAVGQNDCSIYGEDTVTDEEGKFRLRGLLPGCVYHVQLKAEGNDHIERALPHHRVIEVGNNDIDDVNIIVFRQINQFDLSGNVITSSEYLPTLWVKLYKSENLDNPIQTVSLGQSLFFHFPPLLRDGENYVVLLDSTLPRSQYDYILPQVSFTAVGYHKHITLIFNPTRKLPEQDIAQGSYIALPLTLLVLLAGYNHDKLIPLLLQLTSRLQGVRALGQAASDNSGPEDAKRQAKKQKTRRT
B5: AAAT_HUMAN (protein, UniProt Q15758 1-541, looked up)
Neutral amino acid …: MVADPPRDSKGLAAAEPTANGGLALASIEDQGAAAGGYCGSRDQVRRCLRANLLVLLTVVAVVAGVALGLGVSGAGGALALGPERLSAFVFPGELLLRLLRMIILPLVVCSLIGGAASLDPGALGRLGAWALLFFLVTTLLASALGVGLALALQPGAASAAINASVGAAGSAENAPSKEVLDSFLDLARNIFPSNLVSAAFRSYSTTYEERNITGTRVKVPVGQEVEGMNILGLVVFAIVFGVALRKLGPEGELLIRFFNSFNEATMVLVSWIMWYAPVGIMFLVAGKIVEMEDVGLLFARLGKYILCCLLGHAIHGLLVLPLIYFLFTRKNPYRFLWGIVTPLATAFGTSSSSATLPLMMKCVEENNGVAKHISRFILPIGATVNMDGAALFQCVAAVFIAQLSQQSLDFVKIITILVTATASSVGAAGIPAGGVLTLAIILEAVNLPVDHISLILAVDWLVDRSCTVLNVEGDALGAGLLQNYVDRTESRSTEPELIQVKSELPLDPLPVPTEEGNPLLKHYRGPAGDATVASEKESVM
B6: C1TC_HUMAN (protein, UniProt P11586 1-935, looked up)
C-1-tetrahydrofolate …: MAPAEILNGKEISAQIRARLKNQVTQLKEQVPGFTPRLAILQVGNRDDSNLYINVKLKAAEEIGIKATHIKLPRTTTESEVMKYITSLNEDSTVHGFLVQLPLDSENSINTEEVINAIAPEKDVDGLTSINAGKLARGDLNDCFIPCTPKGCLELIKETGVPIAGRHAVVVGRSKIVGAPMHDLLLWNNATVTTCHSKTAHLDEEVNKGDILVVATGQPEMVKGEWIKPGAIVIDCGINYVPDDKKPNGRKVVGDVAYDEAKERASFITPVPGGVGPMTVAMLMQSTVESAKRFLEKFKPGKWMIQYNNLNLKTPVPSDIDISRSCKPKPIGKLAREIGLLSEEVELYGETKAKVLLSALERLKHRPDGKYVVVTGITPTPLGEGKSTTTIGLVQALGAHLYQNVFACVRQPSQGPTFGIKGGAAGGGYSQVIPMEEFNLHLTGDIHAITAANNLVAAAIDARIFHELTQTDKALFNRLVPSVNGVRRFSDIQIRRLKRLGIEKTDPTTLTDEEINRFARLDIDPETITWQRVLDTNDRFLRKITIGQAPTEKGHTRTAQFDISVASEIMAVLALTTSLEDMRERLGKMVVASSKKGEPVSAEDLGVSGALTVLMKDAIKPNLMQTLEGTPVFVHAGPFANIAHGNSSIIADRIALKLVGPEGFVVTEAGFGADIGMEKFFNIKCRYSGLCPHVVVLVATVRALKMHGGGPTVTAGLPLPKAYIQENLELVEKGFSNLKKQIENARMFGIPVVVAVNAFKTDTESELDLISRLSREHGAFDAVKCTHWAEGGKGALALAQAVQRAAQAPSSFQLLYDLKLPVEDKIRIIAQKIYGADDIELLPEAQHKAEVYTKQGFGNLPICMAKTHLSLSHNPEQKGVPTGFILPIRDIRASVGAGFLYPLVGTMSTMPGLPTRPCFYDIDLDPETEQVNGLF

System: KDM4A-I71AzF
Assay: CASI: photo-crosslinking with HEK293T cell extracts, StrepTactin enrichment and LC-MS/MS proteomics;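 also: lysates from HEK293T cells pretreated with a KDM4 inhibitor to raise proteome methylation, affinity-purified after ±UV, gel-resolved, trypsin-digested, with exclusive unique peptides per protein averaged per condition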
Format: binding, human
Details: sheet "Final results but with 0.01"

Molecule	Fold change (+UV/-UV)
B1	4
B2	0.8462
B3	0.4286
B4	0
B5	0.25
B6	0.9444
